In publication PMC2913146 (Molecular cell, 2010):

Molecular target: the molecule itself
Experiment: crystal structure

B1: PoxA (enzyme)
chain: MSETATWQPSASIPNLLKRAAIMAEIRRFFADRGVLEVETPCMSQATVTDIHLFPFETRFVGPGHSQGINLYLMTSPEYHMKRLLAAGCGPVFQLCRSFRNEEMGRHHNPEFTMLEWYRPHYDMYRLMNEVDDLLQQVLDCQPAESLSYQQAFQRHLEIDPLSADKTQLREAAAKLDLSNIADTEEDRDTLLQLLFTMGVEPHIGKEKPTFIYHFPASQASLAQISTEDHRVAERFEVYYKGIELANGFHELTDAREQQQRFEQDNRKRAARGLPQQPIDQNLLDALAAGLPDCSGVALGVDRLVMLALGAESLADVIAFTVDRA
binding result: binds
